Laboratory results published in patent US20250073311A1, “DOSAGE REGIME” (ZEALAND PHARMA A/S, priority 2021, published 2025).
Numbered stars: 1 amine (or outer) side, 2 acyl side, 3 side chain; on linkers, the order of the positions; unused ones are H or OH. Square brackets hold non-standard residues; d marks the D form. Side chains are listed from the residue outwards. * marks the point of attachment. C20 diacid = O=C(O)CCCCCCCCCCCCCCCCCCC(=O)*; C18 diacid = O=C(O)CCCCCCCCCCCCCCCCC(=O)*; γGlu = O=C(O)[C@H](CCC(=O)[*:2])N[*:1]; KEK = Lys-Glu-Lys peptide sequence; AEEA = NCCOCCOCC(=O)O; Aib = CC(C)(N)C(=O)O

T1: human GLP-2 receptor (hGLP2-R) (human, UniProt O95838)
T1 sequence: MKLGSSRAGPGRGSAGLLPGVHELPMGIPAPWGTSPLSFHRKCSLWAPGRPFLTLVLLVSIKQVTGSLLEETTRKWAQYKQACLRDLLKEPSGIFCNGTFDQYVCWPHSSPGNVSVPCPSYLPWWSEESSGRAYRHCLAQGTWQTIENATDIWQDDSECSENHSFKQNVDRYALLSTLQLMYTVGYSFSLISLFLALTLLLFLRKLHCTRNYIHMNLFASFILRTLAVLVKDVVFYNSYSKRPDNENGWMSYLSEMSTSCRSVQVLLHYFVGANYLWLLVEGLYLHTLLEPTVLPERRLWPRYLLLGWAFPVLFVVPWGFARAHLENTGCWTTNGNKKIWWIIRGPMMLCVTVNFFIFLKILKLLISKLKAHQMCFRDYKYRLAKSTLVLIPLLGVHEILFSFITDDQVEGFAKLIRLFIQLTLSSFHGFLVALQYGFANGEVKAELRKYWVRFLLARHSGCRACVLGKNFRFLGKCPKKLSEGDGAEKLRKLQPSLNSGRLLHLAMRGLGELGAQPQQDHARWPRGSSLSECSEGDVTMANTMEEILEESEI

B1: Compound 1 (peptide)
peptide: H-H[Aib]EGTFSSELATILDK([γGlu-C18 diacid])EAARDFIAWLIEHKITD-OH
SMILES: CC[C@H](C)[C@H](NC(=O)[C@H](Cc1ccccc1)NC(=O)[C@H](CC(=O)O)NC(=O)[C@H](CCCNC(=N)N)NC(=O)[C@H](C)NC(=O)[C@H](C)NC(=O)[C@H](CCC(=O)O)NC(=O)[C@H](CCCCNC(=O)CC[C@H](NC(=O)CCCCCCCCCCCCCCCCC(=O)O)C(=O)O)NC(=O)[C@H](CC(=O)O)NC(=O)[C@H](CC(C)C)NC(=O)[C@@H](NC(=O)[C@@H](NC(=O)[C@H](C)NC(=O)[C@H](CC(C)C)NC(=O)[C@H](CCC(=O)O)NC(=O)[C@H](CO)NC(=O)[C@H](CO)NC(=O)[C@H](Cc1ccccc1)NC(=O)[C@@H](NC(=O)CNC(=O)[C@H](CCC(=O)O)NC(=O)C(C)(C)NC(=O)[C@@H](N)Cc1c[nH]cn1)[C@@H](C)O)[C@@H](C)O)[C@@H](C)CC)C(=O)N[C@@H](C)C(=O)N[C@@H](Cc1c[nH]c2ccccc12)C(=O)N[C@@H](CC(C)C)C(=O)N[C@H](C(=O)N[C@@H](CCC(=O)O)C(=O)N[C@@H](Cc1c[nH]cn1)C(=O)N[C@@H](CCCCN)C(=O)N[C@H](C(=O)N[C@H](C(=O)N[C@@H](CC(=O)O)C(=O)O)[C@@H](C)O)[C@@H](C)CC)[C@@H](C)CC
B2: Compound 2 (peptide)
peptide: H-H[Aib]EGSFTSELATILDK([γGlu-C18 diacid])EAARDFIAWLIEHKITD-OH
SMILES: CC[C@H](C)[C@H](NC(=O)[C@H](Cc1ccccc1)NC(=O)[C@H](CC(=O)O)NC(=O)[C@H](CCCNC(=N)N)NC(=O)[C@H](C)NC(=O)[C@H](C)NC(=O)[C@H](CCC(=O)O)NC(=O)[C@H](CCCCNC(=O)CC[C@H](NC(=O)CCCCCCCCCCCCCCCCC(=O)O)C(=O)O)NC(=O)[C@H](CC(=O)O)NC(=O)[C@H](CC(C)C)NC(=O)[C@@H](NC(=O)[C@@H](NC(=O)[C@H](C)NC(=O)[C@H](CC(C)C)NC(=O)[C@H](CCC(=O)O)NC(=O)[C@H](CO)NC(=O)[C@@H](NC(=O)[C@H](Cc1ccccc1)NC(=O)[C@H](CO)NC(=O)CNC(=O)[C@H](CCC(=O)O)NC(=O)C(C)(C)NC(=O)[C@@H](N)Cc1c[nH]cn1)[C@@H](C)O)[C@@H](C)O)[C@@H](C)CC)C(=O)N[C@@H](C)C(=O)N[C@@H](Cc1c[nH]c2ccccc12)C(=O)N[C@@H](CC(C)C)C(=O)N[C@H](C(=O)N[C@@H](CCC(=O)O)C(=O)N[C@@H](Cc1c[nH]cn1)C(=O)N[C@@H](CCCCN)C(=O)N[C@H](C(=O)N[C@H](C(=O)N[C@@H](CC(=O)O)C(=O)O)[C@@H](C)O)[C@@H](C)CC)[C@@H](C)CC

What follows are binders tested against human glucagon-like peptide 1 receptor (GLP-1R) (human, UniProt P43220) (assay: cell-based or functional assay).
With H-H[Aib]EGSFTSELATILDK([AEEA-KEK-γGlu-C20 diacid])QAARDFIAWLIEHKITD-OH [Compound 57] the “EC50 GLP-1 (nM), cAMP AlphaScreen” value was 0.093 nM. B1 was tested, and the “EC50 GLP-1 (nM), cAMP AlphaScreen” value was 0.63 nM. With H-H[Aib]EGTFSSELATILDK([AEEA-KEK-γGlu-C20 diacid])QAARDFIAWLIEHKITD-OH [Compound 50] the “EC50 GLP-1 (nM), cAMP AlphaScreen” value was 0.31 nM. For H-H[Aib]EGTFTSEK([AEEA-KEK-γGlu-C20 diacid])ATILDEQAARDFIAWLIEHKITD-OH [Compound 54], the “EC50 GLP-1 (nM), cAMP AlphaScreen” value was 0.034 nM. For H-H[Aib]EGSFTSEK([AEEA-AEEA-KEK-γGlu-C20 diacid])ATILDEQAARDFIAWLIEHKITD-OH [Compound 55], the “EC50 GLP-1 (nM), cAMP AlphaScreen” value was 0.11 nM. In the case of H-H[Aib]EGSFTSELATILDK([AEEA-AEEA-KEK-γGlu-C20 diacid])QAARDFIAWLIEHKITD-OH [Compound 60], the “EC50 GLP-1 (nM), cAMP AlphaScreen” value is reported as 0.097 nM. For H-H[Aib]EGSFTSEK([AEEA-KEK-γGlu-C20 diacid])ATILDEQAARDFIAWLIEHKITD-OH [Compound 53], the “EC50 GLP-1 (nM), cAMP AlphaScreen” value was 0.076 nM. H-H[Aib]EGTFSSELATILDK([AEEA-KEK-γGlu-C18 diacid])QAARDFIAWLIEHKITD-OH [Compound 49] was tested, and the “EC50 GLP-1 (nM), cAMP AlphaScreen” value was 0.27 nM. H-H[Aib]EGTFSSELATILDK([AEEA-KEK-γGlu-C18 diacid])QAARDFIAWLIQHKITD-OH [Compound 47] was tested, and the “EC50 GLP-1 (nM), cAMP AlphaScreen” value was 0.44 nM. In the case of H-H[Aib]EGSFTSELATILDK([AEEA-KEK-γGlu-C20 diacid])QAARDFIAWLIAHKITD-OH [Compound 58], the “EC50 GLP-1 (nM), cAMP AlphaScreen” value is reported as 0.089 nM. H-H[Aib]EGTFTSELATILDK([AEEA-KEK-γGlu-C20 diacid])QAARDFIAWLIQHKITD-OH [Compound 52] was tested, and the “EC50 GLP-1 (nM), cAMP AlphaScreen” value was 0.02 nM. H-H[Aib]EGTFTSELATILDK([KEK-γGlu-C20 diacid])QAARDFIAWLIQHKITD-OH [Compound 51] was tested, and the “EC50 GLP-1 (nM), cAMP AlphaScreen” value was 0.02 nM. H-H[Aib]EGTFSSELATILDK([AEEA-KEK-γGlu-C20 diacid])QAARDFIAWLIQHKITD-OH [Compound 48] was tested, and the “EC50 GLP-1 (nM), cAMP AlphaScreen” value was 0.47 nM. H-H[Aib]EGTFTSELATILDK([AEEA-KEK-γGlu-C20 diacid])QAARDFIAWLIEHKITD-OH [Compound 56] was tested, and the “EC50 GLP-1 (nM), cAMP AlphaScreen” value was 0.033 nM. For H-H[Aib]EGSFTSELATILDK([AEEA-KEK-γGlu-C20 diacid])KAARDFIAWLIEHKITD-OH [Compound 59], the “EC50 GLP-1 (nM), cAMP AlphaScreen” value was 0.088 nM. With B2 the “EC50 GLP-1 (nM), cAMP AlphaScreen” value was 0.13 nM. In the case of H-H[Aib]EGSFTSELATILEGK([AEEA-KEK-γGlu-C20 diacid])AARDFIAWLIEHKITD-OH [Compound 61], the “EC50 GLP-1 (nM), cAMP AlphaScreen” value is reported as 0.13 nM. For H-H[Aib]EGSFTSELATILDAK([AEEA-KEK-γGlu-C20 diacid])AARDFIAWLIEHKITD-OH [Compound 62], the “EC50 GLP-1 (nM), cAMP AlphaScreen” value was 0.27 nM.

What follows are binders tested against T1, human GLP-2 receptor (hGLP2-R) (assay: cell-based or functional assay).
In the case of H-H[Aib]EGSFTSELATILDK([AEEA-KEK-γGlu-C20 diacid])QAARDFIAWLIEHKITD-OH [Compound 57], the “EC50 GLP-2 (nM), cAMP AlphaScreen” value is reported as 0.083 nM. For B1, the “EC50 GLP-2 (nM), cAMP AlphaScreen” value was 0.35 nM. For H-H[Aib]EGTFSSELATILDK([AEEA-KEK-γGlu-C20 diacid])QAARDFIAWLIEHKITD-OH [Compound 50], the “EC50 GLP-2 (nM), cAMP AlphaScreen” value was 0.056 nM. In the case of H-H[Aib]EGTFTSEK([AEEA-KEK-γGlu-C20 diacid])ATILDEQAARDFIAWLIEHKITD-OH [Compound 54], the “EC50 GLP-2 (nM), cAMP AlphaScreen” value is reported as 0.99 nM. H-H[Aib]EGSFTSEK([AEEA-AEEA-KEK-γGlu-C20 diacid])ATILDEQAARDFIAWLIEHKITD-OH [Compound 55] was tested, and the “EC50 GLP-2 (nM), cAMP AlphaScreen” value was 0.78 nM. H-H[Aib]EGSFTSELATILDK([AEEA-AEEA-KEK-γGlu-C20 diacid])QAARDFIAWLIEHKITD-OH [Compound 60] was tested, and the “EC50 GLP-2 (nM), cAMP AlphaScreen” value was 0.074 nM. For H-H[Aib]EGSFTSEK([AEEA-KEK-γGlu-C20 diacid])ATILDEQAARDFIAWLIEHKITD-OH [Compound 53], the “EC50 GLP-2 (nM), cAMP AlphaScreen” value was 0.24 nM. In the case of H-H[Aib]EGTFSSELATILDK([AEEA-KEK-γGlu-C18 diacid])QAARDFIAWLIEHKITD-OH [Compound 49], the “EC50 GLP-2 (nM), cAMP AlphaScreen” value is reported as 0.044 nM. In the case of H-H[Aib]EGTFSSELATILDK([AEEA-KEK-γGlu-C18 diacid])QAARDFIAWLIQHKITD-OH [Compound 47], the “EC50 GLP-2 (nM), cAMP AlphaScreen” value is reported as 0.048 nM. With H-H[Aib]EGSFTSELATILDK([AEEA-KEK-γGlu-C20 diacid])QAARDFIAWLIAHKITD-OH [Compound 58] the “EC50 GLP-2 (nM), cAMP AlphaScreen” value was 0.09 nM. In the case of H-H[Aib]EGTFTSELATILDK([AEEA-KEK-γGlu-C20 diacid])QAARDFIAWLIQHKITD-OH [Compound 52], the “EC50 GLP-2 (nM), cAMP AlphaScreen” value is reported as 0.075 nM. H-H[Aib]EGTFTSELATILDK([KEK-γGlu-C20 diacid])QAARDFIAWLIQHKITD-OH [Compound 51] was tested, and the “EC50 GLP-2 (nM), cAMP AlphaScreen” value was 0.18 nM. H-H[Aib]EGTFSSELATILDK([AEEA-KEK-γGlu-C20 diacid])QAARDFIAWLIQHKITD-OH [Compound 48] was tested, and the “EC50 GLP-2 (nM), cAMP AlphaScreen” value was 0.054 nM. With H-H[Aib]EGTFTSELATILDK([AEEA-KEK-γGlu-C20 diacid])QAARDFIAWLIEHKITD-OH [Compound 56] the “EC50 GLP-2 (nM), cAMP AlphaScreen” value was 0.076 nM. With H-H[Aib]EGSFTSELATILDK([AEEA-KEK-γGlu-C20 diacid])KAARDFIAWLIEHKITD-OH [Compound 59] the “EC50 GLP-2 (nM), cAMP AlphaScreen” value was 0.11 nM. With B2 the “EC50 GLP-2 (nM), cAMP AlphaScreen” value was 0.25 nM. H-H[Aib]EGSFTSELATILEGK([AEEA-KEK-γGlu-C20 diacid])AARDFIAWLIEHKITD-OH [Compound 61] was tested, and the “EC50 GLP-2 (nM), cAMP AlphaScreen” value was 0.2 nM. H-H[Aib]EGSFTSELATILDAK([AEEA-KEK-γGlu-C20 diacid])AARDFIAWLIEHKITD-OH [Compound 62] was tested, and the “EC50 GLP-2 (nM), cAMP AlphaScreen” value was 0.15 nM.
